This is an account of results in article PMC7005744, “Cis- and trans-regulations of pre-mRNA splicing by RNA editing enzymes influence cancer development”.

For one data set, the target named is ADAR2 (UniProt P78563 1-741). Description: EMSA; dose-dependent shift; REMSA/UV: 0.5 pmol 32P probe, 1x REMSA binding buffer (Thermo), 0.1 ug/ul yeast tRNA, room temperature 30 min, 6% native PAGE; pull-down: 250 mM NaCl, 10 mM MgCl2, 50 mM Hepes pH 7.4, 0.5% Igepal CA-630, tRNA, 4 C or RT 30 min. The note with it: protein: recombinant; tags: FLAG; chain copies: 2; label: 5' 32P; hairpin.

The target in the next data set is T1, ADAR1 (UniProt P55265 296-1226).
T1 sequence: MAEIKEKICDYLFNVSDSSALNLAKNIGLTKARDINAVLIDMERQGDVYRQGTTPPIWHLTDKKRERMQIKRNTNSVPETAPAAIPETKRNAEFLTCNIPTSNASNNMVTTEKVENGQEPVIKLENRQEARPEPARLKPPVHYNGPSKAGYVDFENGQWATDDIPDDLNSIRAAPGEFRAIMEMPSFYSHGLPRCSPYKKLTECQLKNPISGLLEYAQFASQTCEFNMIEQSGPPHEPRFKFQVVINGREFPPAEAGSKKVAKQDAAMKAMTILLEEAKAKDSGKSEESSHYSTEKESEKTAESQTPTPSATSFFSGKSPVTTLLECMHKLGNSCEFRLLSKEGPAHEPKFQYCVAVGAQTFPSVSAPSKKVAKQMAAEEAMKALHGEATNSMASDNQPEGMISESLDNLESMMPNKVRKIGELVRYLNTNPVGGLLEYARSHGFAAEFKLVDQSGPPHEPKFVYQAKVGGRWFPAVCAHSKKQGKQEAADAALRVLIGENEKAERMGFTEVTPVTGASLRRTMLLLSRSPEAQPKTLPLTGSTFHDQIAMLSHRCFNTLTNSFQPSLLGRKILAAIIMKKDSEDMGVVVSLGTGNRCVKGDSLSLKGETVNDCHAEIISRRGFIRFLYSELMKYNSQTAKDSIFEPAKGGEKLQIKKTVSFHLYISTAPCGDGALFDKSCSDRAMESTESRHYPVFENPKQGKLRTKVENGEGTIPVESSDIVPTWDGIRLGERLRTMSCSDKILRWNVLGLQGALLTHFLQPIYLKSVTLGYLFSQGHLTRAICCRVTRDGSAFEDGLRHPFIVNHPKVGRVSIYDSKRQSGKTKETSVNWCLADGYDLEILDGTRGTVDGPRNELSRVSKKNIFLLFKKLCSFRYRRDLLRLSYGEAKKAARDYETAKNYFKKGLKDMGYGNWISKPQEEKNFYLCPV
The data set is described as above. The note with it: protein: recombinant; tags: FLAG; chain copies: 2; label: 5' 32P; hairpin.

B1: CCDC15 In8-9 WT (structured_RNA)
RNA: GGUAGAAAAGAAAAAUGACACUCGAGUGUUUUUUUCUCUUCUACUU
Take B1: the binding result in the data set with ADAR2 and with ADAR1 was “binds” throughout.
